Results reported in patent US20220259593A1, “CONTROL OF MAMMALIAN GENE DOSAGE USING CRISPR” (The Regents of the University of California, priority 2019, published 2022).

System: K562 CRISPRi cells
Assay: Constant region variant library pooled growth screen, K562
Format: cell-based, human
Settings: sgRNA constant region variants; activity relative to the original, un-modified constant region cr995
In short: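 Cells were selected with puromycin for 2 days and then kept in RPMI-1640 spinner cultures, with duplicates handled separately. Targeting sequences comprised 3 sgRNAs per essential gene for 10 genes plus six non-targeting controls. Activities were normalized against pairing with the unmodified scaffold.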

Molecule | Mean relative activity
cr138 (nucleic acid, listed as DNA, chemistry not fully specified) guide: GTTTAAGAGCTAAGCTGGAAACAGCATAGCAAGCTTAAATAAGGCTAGTCCGTTATCAACTTGAAAAAGTGGCACGGAGTCCGTGCT | 0.04307
cr301 (nucleic acid, listed as DNA, chemistry not fully specified) guide: GTTTAAGAGCTAAGCTGGAAACAGCATAGCAACTTTAAATAAGGCTAGTCCGTTATCAACTTGAAAAAGTGGCACCGATTCGGTGCT | 0.03132
cr313 (nucleic acid, listed as DNA, chemistry not fully specified) guide: GTTTAAGAGCTAAGCTGGAAACAGCATAGCAAGTTTAAATAAGGCTAGTCCGTTATCAACTTGAAAAAGTGGGTGGGAGTCGCTCCT | 0.03202
cr526 (nucleic acid, listed as DNA, chemistry not fully specified) guide: GTTTAAGAGCTAAGCTGGAAACAGCATAGCAAGTTTAAATAATGCTAGTCAGTTATCAACTTGAAAAAGTGGCGCCGAGTCGGCGCT | 0.03359
cr638 (nucleic acid, listed as DNA, chemistry not fully specified) guide: GTTTAAGAGCTAAGCTGGAAACAGCATAGCAAGCTTAAATAAGGGTACTCCGTTATCAACTTGAAAAAGTGGCACCGAGTCGGTGCT | 0.03012
cr107 (nucleic acid, listed as DNA, chemistry not fully specified) guide: GTTTAAGAGCTAAGCTGGAAACAGCATAGCAAGTTTAAATAATGCTAGTCAGTTATCAACTTGAAAAAGTGGCAACGAGTCGTTGCT | 0.03837
cr574 (nucleic acid, listed as DNA, chemistry not fully specified) guide: GTTTAAGAGCTAAGCTGGAAACAGCATAGCAAGTTTCAATAAGGCTAGTCCGTTATCAACTTGAAAAAGTGGCACCGAGTCGGTGCT | 0.03217
cr708 (nucleic acid, listed as DNA, chemistry not fully specified) guide: GTTTAAGAGCTAAGCTGGAAACAGCATAGCAAGTTTAAATAATGCTAGTCAGTTATCAACTTGAAAAAGTGGCACCGAGTCGGTGCT | 0.0394
cr208 (nucleic acid, listed as DNA, chemistry not fully specified) guide: GTTTAAGAGCTAAGCTGGAAACAGCATAGCAAGTTTAAATAAGGCTAGTCCTTCATCAACTTGAAGAAGTGGCACCGAGTCGGTGCT | 0.03711
cr498 (nucleic acid, listed as DNA, chemistry not fully specified) guide: GTTTAAGAGCTAAGCTGGAAACAGCATAGCAAGTTTAATTAAGGCTAGTCCGTTATCAACTTGAAAAAGTGGCACCGAGTCGGTGCT | 0.03563
cr241 (nucleic acid, listed as DNA, chemistry not fully specified) guide: GTTTAAGAGCTAAGCTGGAAACAGCATAGCAACTTTAAATAAGGCTAGTCCGTTATCAACATGAAAATGTGGCACCGAGTCGGTGCT | 0.03304
cr880 (nucleic acid, listed as DNA, chemistry not fully specified) guide: GTTTAAGAGCTAAGCTGGAAACAGCATAGCAAGGTTAAATAAGGCTAGTCCGTTATCAACTTGAAAAAGTGGCATCGAGTCGATGCT | 0.03183
cr202 (nucleic acid, listed as DNA, chemistry not fully specified) guide: GTTTAAGAGCTAAGCTGGAAACAGCATAGCAACTTTAAATAAGGCTAGTCCGTTATCAACTTGAAAAAGTGACACCGAGTCGGTGTT | 0.03423
cr007 (nucleic acid, listed as DNA, chemistry not fully specified) guide: GTATAAGAGCTAAGCTGGAAACAGCATAGCAAGTTTAAATAAGGCTAGTCCGTTATCAACTTGAAAAAGTGGCACCGAGTCGGTGCT | 0.03285
cr222 (nucleic acid, listed as DNA, chemistry not fully specified) guide: GTTTAAGAGCTAAGCTGGAAACAGCATAGCAAGGTTAAATAAGGCTAGTCCGTTATCAGCTTGAAAAAGCGGCACCGAGTCGGTGCT | 0.03915
cr314 (nucleic acid, listed as DNA, chemistry not fully specified) guide: GTTTAAGAGCTAAGCTGGAAACAGCATAGCAAGGTTAAATAAGGCTAGTCCGTTATCAACTTGAAAAAGTGGAACCGAGTCGGTTCT | 0.03303

Molecule | Mean relative activity
cr593 (nucleic acid, listed as DNA, chemistry not fully specified) guide: GTTTAAGAGCTAAGCTGGAAACAGCATAGCAAGTTTAAATAAGGCTAGTCCGTTATCACCTTGAAAAAGGGGCACCGAGTCGGTGCT | 1.035
cr767 (nucleic acid, listed as DNA, chemistry not fully specified) guide: GTTTAAGAGCTAAGCTGGAAACAGCATAGCAAGATTAAATAAGGCTAGTCCGTTATCAACTTGAAAAAGTGGCACCGTGTCGGTGCT | 0.0381
cr571 (nucleic acid, listed as DNA, chemistry not fully specified) guide: GTTTAAGAGCTAAGCTGGAAACAGCATAGCAAGGTTAAATAAGGCTAGTCCGTTATCAACTCGAAAGAGTGGCACCGAGTCGGTGCT | 0.03194
cr743 (nucleic acid, listed as DNA, chemistry not fully specified) guide: GTTTAAGAGCTAAGCTGGAAACAGCATAGCAACTTTAAATAAGGCTAGTCCGTTATCAACTTGAAAAAGTGGCGCCGAGTCGGCGCT | 0.03495
cr312 (nucleic acid, listed as DNA, chemistry not fully specified) guide: GTTTAAGAGCTAAGCTGGAAACAGCATAGCAAGGTTAAATAAGGCTAGTCCGTTATCAACGTGAAAACGTGGCACCGAGTCGGTGCT | 0.03032
cr988 (nucleic acid, listed as DNA, chemistry not fully specified) guide: GTTTAAGAGCTAAGCTGGAAACAGCATAGCAACTTTAAATAAGGCTAGTCCGTTATCAAGTTGAAAAACTGGCACCGAGTCGGTGCT | 0.0305
cr335 (nucleic acid, listed as DNA, chemistry not fully specified) guide: GTTTAAGAGCTAAGCTGGAAACAGCATAGCAAGTTTAAATAAGGCTAGTCCGTTATCAACTTGAAAAAGTGACGCCGAGTCGGCGTT | 1.036
cr078 (nucleic acid, listed as DNA, chemistry not fully specified) guide: GTTTTGGAGCTAAGCTGGAAACAGCATAGCAAGTTTAAATAAGGCTAGTCCGTTATCAACTTGAAAAAGTGGCACCGAGTCGGTGCT | 0.03507
cr211 (nucleic acid, listed as DNA, chemistry not fully specified) guide: GTTTAAGAGCTAAGCTGGAAACAGCATAGCAAGTTTAAATAAGTCTAGTCCGTTATCAACTTGAAAAAGTGGCACCGAGTCGGTGCT | 0.04075
cr616 (nucleic acid, listed as DNA, chemistry not fully specified) guide: GTTTAAGAGCTAAGCTGGAAACAGCATAGCAAGTTTAAATAAGGCTAGTCCGTTATCAAGATGAAAATCTGGCACCGAGTCGGTGCT | 1.035
cr738 (nucleic acid, listed as DNA, chemistry not fully specified) guide: GTTTAAGAGCTAAGCTGGAAACAGCATAGCATGTTTAAATTAGGCTAGTCCGTTATCAACTTGAAAAAGTGGCACCGAGTCGGTGCT | 0.03306
cr716 (nucleic acid, listed as DNA, chemistry not fully specified) guide: GTTTAAGAGCTAAGCTGGAAACAGCATAGCCATTTTAAATAAGGCTAGTCCGTTATCAACTTGAAAAAGTGGCACCGAGTCGGTGCT | 0.03033
cr681 (nucleic acid, listed as DNA, chemistry not fully specified) guide: GTTTAAGAGCTAAGCTGGAAACAGCATAGCAAGTTTAAATAAGGCTACTCCGTTATTAACTTGAAAAAGTGGCACCGAGTCGGTGCT | 0.03559
cr357 (nucleic acid, listed as DNA, chemistry not fully specified) guide: GTTTAAGAGCTAAGCTGGAAACAGCATAGCAAGGTTAAATAAGGCTAGTCCGTTATCAACTTGAAAAAGTGGCTCCGAGTCGGAGCT | 0.03253
cr151 (nucleic acid, listed as DNA, chemistry not fully specified) guide: GTTTAAGAGCTAAGCTGGAAACAGCATAGCAACTTTAAATAAGGCTAGTCCGGTATCAACTTGAAAAAGTGGCACCGAGTCGGTGCT | 0.03186
